# T1: TNFR1 (Homo sapiens, UniProt P19438)
# T1 chain: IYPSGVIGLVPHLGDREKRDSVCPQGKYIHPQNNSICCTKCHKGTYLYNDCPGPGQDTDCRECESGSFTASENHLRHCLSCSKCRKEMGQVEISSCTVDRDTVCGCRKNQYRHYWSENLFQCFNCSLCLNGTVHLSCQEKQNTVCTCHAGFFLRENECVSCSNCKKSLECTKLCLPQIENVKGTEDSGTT
# Molecular target: T1, TNFR1
# Assay: yeast display SC50
row,Binder,apparent Kd (screen)
1,M1L (designed binder) LTLQELLREEALRRAEAEAFRYALELLAEKFPEQKEYLLDLAEEIESQIRSLSGVDVEDVRKFLDKEWAWVKELLAEHPAELAEVEAARAARLAELRAEVEAKVAA,653 pM
2,L27C (designed binder) MTLQELLREEALRRAEAEAFRYALELCAEKFPEQKEYLLDLAEEIESQIRSLSGVDVEDVRKFLDKEWAWVKELLAEHPAELAEVEAARAARLAELRAEVEAKVAA,539 pM
3,A17E (designed binder) MTLQELLREEALRRAEEEAFRYALELLAEKFPEQKEYLLDLAEEIESQIRSLSGVDVEDVRKFLDKEWAWVKELLAEHPAELAEVEAARAARLAELRAEVEAKVAA,229 pM
4,L75H (designed binder) MTLQELLREEALRRAEAEAFRYALELLAEKFPEQKEYLLDLAEEIESQIRSLSGVDVEDVRKFLDKEWAWVKELHAEHPAELAEVEAARAARLAELRAEVEAKVAA,539 pM
5,D40V (designed binder) MTLQELLREEALRRAEAEAFRYALELLAEKFPEQKEYLLVLAEEIESQIRSLSGVDVEDVRKFLDKEWAWVKELLAEHPAELAEVEAARAARLAELRAEVEAKVAA,5310 pM
6,E25K (designed binder) MTLQELLREEALRRAEAEAFRYALKLLAEKFPEQKEYLLDLAEEIESQIRSLSGVDVEDVRKFLDKEWAWVKELLAEHPAELAEVEAARAARLAELRAEVEAKVAA,446 pM
7,V71C (designed binder) MTLQELLREEALRRAEAEAFRYALELLAEKFPEQKEYLLDLAEEIESQIRSLSGVDVEDVRKFLDKEWAWCKELLAEHPAELAEVEAARAARLAELRAEVEAKVAA,653 pM
8,A88R (designed binder) MTLQELLREEALRRAEAEAFRYALELLAEKFPEQKEYLLDLAEEIESQIRSLSGVDVEDVRKFLDKEWAWVKELLAEHPAELAEVEARRAARLAELRAEVEAKVAA,593 pM
9,L64E (designed binder) MTLQELLREEALRRAEAEAFRYALELLAEKFPEQKEYLLDLAEEIESQIRSLSGVDVEDVRKFEDKEWAWVKELLAEHPAELAEVEAARAARLAELRAEVEAKVAA,5310 pM

# Other lines, results leading:
row,apparent Kd (screen),Binder
1,869 pM,L93V (designed binder) MTLQELLREEALRRAEAEAFRYALELLAEKFPEQKEYLLDLAEEIESQIRSLSGVDVEDVRKFLDKEWAWVKELLAEHPAELAEVEAARAARVAELRAEVEAKVAA
2,539 pM,L93I (designed binder) MTLQELLREEALRRAEAEAFRYALELLAEKFPEQKEYLLDLAEEIESQIRSLSGVDVEDVRKFLDKEWAWVKELLAEHPAELAEVEAARAARIAELRAEVEAKVAA
3,593 pM,V104K (designed binder) MTLQELLREEALRRAEAEAFRYALELLAEKFPEQKEYLLDLAEEIESQIRSLSGVDVEDVRKFLDKEWAWVKELLAEHPAELAEVEAARAARLAELRAEVEAKKAA
4,653 pM,A90N (designed binder) MTLQELLREEALRRAEAEAFRYALELLAEKFPEQKEYLLDLAEEIESQIRSLSGVDVEDVRKFLDKEWAWVKELLAEHPAELAEVEAARNARLAELRAEVEAKVAA
5,653 pM,E95G (designed binder) MTLQELLREEALRRAEAEAFRYALELLAEKFPEQKEYLLDLAEEIESQIRSLSGVDVEDVRKFLDKEWAWVKELLAEHPAELAEVEAARAARLAGLRAEVEAKVAA

# — PMC12416549 (2024)
